Source: patent US12098206B2, “PDGF receptor antibody and use thereof” (Seoul National University R&DB Foundation, priority 2018, dated 2024)

Target: T1, mPDGFR-β and cotinine (Mus musculus, UniProt P05622)
T1 construct: mPDGFR-β
T1 sequence (P05622 32-530): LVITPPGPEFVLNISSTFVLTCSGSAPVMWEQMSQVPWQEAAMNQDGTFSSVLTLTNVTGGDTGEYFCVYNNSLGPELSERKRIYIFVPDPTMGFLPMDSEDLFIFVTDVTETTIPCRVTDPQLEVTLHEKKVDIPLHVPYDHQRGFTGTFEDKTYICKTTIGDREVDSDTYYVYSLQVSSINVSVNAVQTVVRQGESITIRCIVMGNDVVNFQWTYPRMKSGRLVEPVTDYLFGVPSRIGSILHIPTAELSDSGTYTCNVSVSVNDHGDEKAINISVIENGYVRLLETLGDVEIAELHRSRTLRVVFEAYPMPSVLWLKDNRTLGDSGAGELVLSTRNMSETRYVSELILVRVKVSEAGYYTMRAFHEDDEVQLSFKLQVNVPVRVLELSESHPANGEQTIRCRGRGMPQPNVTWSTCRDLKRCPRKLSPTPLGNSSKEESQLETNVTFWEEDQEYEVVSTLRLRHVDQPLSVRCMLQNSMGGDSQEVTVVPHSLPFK
Assay: Enzyme immunoassay, simultaneous binding to cotinine and mPDGFR-β
Conditions: cotinine-BSA coated wells, then mPDGFR-β-Fc chimera; FIG. 3d
Description: In order to confirm whether the bispecific antibody has simultaneous binding ability to both cotinine and mPDGFR-β, anti-mPDGFR-β x cotinine scFv-Cκ-scFv fusion protein was reacted in wells coated with cotinine-BSA. Washing was performed for each process, and mPDGFR-β-Fc chimeric protein and HRP-anti human Fc antibody were sequentially incubated.

B1: PRb-CN01: anti-mPDGFR-β chicken scFv clone (VH SEQ ID NO 7, VL SEQ ID NO 8), tested as scFv-Cκ-anti-cotinine scFv bispecific antibody (antibody, V domains shown)
VH: AVTLDESGGGLQTPGGALSLVCKASGFTFSDRAMHWVRQAPGKGLEWVGLITNTGGSTNYGAAVKGRATISRDNGQSTVRLQLNNLRAEDTGTYYCTRGVGSWAHGGRIDAWGHGTEVIVSS
VL: LTQPSSVSANPGETVKITCSGGSGSYGWFQQKSPGSAPVTVIYSNNQRPSDIPSRFSGSKSGSTNTLTITGVQAEDEAIYYCGTRDSSYVGIFGAGTTLTVL
modifications: VH of PRb-CN01; VL of PRb-CN01
simultaneous binding to mPDGFR-β and cotinine: simultaneously bound to mPDGFR-β and cotinine
